# Measured values taken from patent publication US8129345B2, “MUC1-IκB kinase complexes and their activities” (Dana-Farber Cancer Institute, Inc., priority 2006, dated 2012).
# “Also recorded” adds a separate entry of the source.
# T1: IKKβ (Homo sapiens, UniProt O14920)
# T1 sequence (O14920 1-756): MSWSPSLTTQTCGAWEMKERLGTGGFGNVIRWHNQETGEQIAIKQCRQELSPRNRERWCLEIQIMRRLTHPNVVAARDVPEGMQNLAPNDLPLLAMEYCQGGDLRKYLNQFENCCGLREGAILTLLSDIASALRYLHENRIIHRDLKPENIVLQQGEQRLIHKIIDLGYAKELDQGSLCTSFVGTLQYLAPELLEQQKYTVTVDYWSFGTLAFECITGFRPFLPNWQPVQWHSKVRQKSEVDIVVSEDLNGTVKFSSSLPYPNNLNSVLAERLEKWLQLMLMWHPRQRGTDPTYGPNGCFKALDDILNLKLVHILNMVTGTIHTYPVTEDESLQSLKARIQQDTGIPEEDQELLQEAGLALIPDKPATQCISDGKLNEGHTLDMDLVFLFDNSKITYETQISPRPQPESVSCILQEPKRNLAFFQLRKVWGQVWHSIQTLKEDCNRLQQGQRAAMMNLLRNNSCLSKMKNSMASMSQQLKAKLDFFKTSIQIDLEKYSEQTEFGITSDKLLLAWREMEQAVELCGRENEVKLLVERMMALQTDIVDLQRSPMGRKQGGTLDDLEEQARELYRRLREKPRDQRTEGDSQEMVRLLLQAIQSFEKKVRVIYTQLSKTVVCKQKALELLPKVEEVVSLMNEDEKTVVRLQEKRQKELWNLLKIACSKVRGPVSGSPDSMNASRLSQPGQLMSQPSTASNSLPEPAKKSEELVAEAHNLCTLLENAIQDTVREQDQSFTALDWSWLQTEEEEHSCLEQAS
# T2: MUC1-CD (Homo sapiens, UniProt P15941)
# T2 construct: the MUC1-cytoplasmic domain (MUC1-CD) [amino acids 1-72; GST (N, cleaved yes); made in house
# T2 sequence (P15941 1184-1255): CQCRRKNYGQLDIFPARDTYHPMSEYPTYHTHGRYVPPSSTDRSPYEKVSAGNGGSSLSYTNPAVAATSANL
# How the values were obtained:
# IKKγ = IKKγ (Homo sapiens, UniProt Q9Y6K9); assay: In vitro GST pull-down binding to IKKγ; conditions: GST pull-down with purified proteins, immunoblot
# IKKγ, sequence (Q9Y6K9 whole entry): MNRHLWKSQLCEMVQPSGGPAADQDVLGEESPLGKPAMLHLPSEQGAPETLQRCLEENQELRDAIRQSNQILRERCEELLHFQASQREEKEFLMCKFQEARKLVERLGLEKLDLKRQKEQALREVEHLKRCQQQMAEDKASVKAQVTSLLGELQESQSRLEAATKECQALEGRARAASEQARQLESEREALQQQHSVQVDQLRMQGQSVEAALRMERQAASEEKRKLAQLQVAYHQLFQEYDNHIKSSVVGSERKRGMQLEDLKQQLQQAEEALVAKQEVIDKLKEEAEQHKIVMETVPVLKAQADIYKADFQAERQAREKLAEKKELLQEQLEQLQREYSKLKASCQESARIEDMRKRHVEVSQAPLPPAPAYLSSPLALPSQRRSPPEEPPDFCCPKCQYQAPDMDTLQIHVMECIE
# Description: FIG. 5B is a pair of photographs of immunoblots showing an interaction between MUC1-CD and IKKγ. GST- and GST-IKKγ bound to glutathione beads were incubated with purified MUC1-CD. The precipitates were immunoblotted (IB) with anti-MUC1-C antibodies. Commassie blue staining of the gel was performed to confirm that equal amounts of GST- and GST-IKKγ were used in the experiment. The molecular weights of proteins (as indicated on the left of the photographs) are expressed as kilodaltons (kDa).
# (§1) FIG. 5C is a pair of photographs of immunoblots. GST- and the indicated GST-MUC1-CD fusion proteins or fragments bound to glutathione beads were incubated with purified IKKγ. The precipitates were immunoblotted (IB) with anti-IKKγ antibody. Commassie blue staining of the gel was performed to confirm that equal amounts of GST- and GST-MUC1 proteins were used in the experiment. The molecular weights of proteins (as indicated on the left of the photographs) are expressed as kilodaltons (kDa).
# FIG. 5D is a pair of photographs of immunoblots. GST and the indicated GST-IKKγ fusion proteins bound to glutathione beads were incubated with MUC1-CD. The precipitates were immunoblotted (IB) with anti-MUC1-C antibody. Commassie blue staining of the gel was performed to confirm that equal amounts of GST- and GST-IKKγ proteins were used in the experiment. The molecular weights of proteins (as indicated on the left of the photographs) are expressed as kilodaltons (kDa).
# as §1, with “FIG. 11B” for “FIG. 5C”, “of an immunoblot and Coomassie blue stained gel. GST” for “of immunoblots. GST-”, “proteins (MUC1-CD and MUC1-CD(mSRM))” for “proteins or fragments”, “with” for “with purified”, “with an” for “with”, “and GST-MUC1-CD” for “and GST-MUC1”
# (§2) In vitro binding assays. Purified GST-MUC1-CD (glutathione s-transferase fused to the MUC1-CD polypeptide) was cleaved with thrombin to remove the GST moiety. GST, GST-IKKβ (DiDonato et al. (1997) Nature 388:548-554), GST-IKKβ (1-458), GST-IKKβ (458-756), GST-IKKγ (Prajapati et al. (2002) J. Biol. Chem. 277:24331-24339), GST-IKKγ (1-196) or GST-IKKγ (197-419) were then incubated with the MUC1-CD for 1 hour at 25° C. In other experiments, GST, GST-MUC1-CD, GST-MUC1-CD(1-45) or GST-MUC1-CD(46-72) were incubated with purified IKKβ or IKKγ. Adsorbates to glutathione-conjugated beads were analyzed by immunoblotting.
# IKKβ [1] = biological target: T1, IKKβ; assay: In vitro GST pull-down binding to IKKβ; conditions: GST pull-down with purified proteins, immunoblot
# Description: FIG. 4B is a pair of photographs of immunoblots. Recombinantly expressed, purified GST- and GST-IKKβ proteins bound to glutathione-agarose beads were incubated with purified MUC1-CD protein. The precipitates were immunoblotted (IB) with anti-MUC1-C antibodies. Input of the GST and GST-IKKβ proteins was assessed by Coomassie blue staining. The molecular weights of proteins (as indicated on the left of the photographs) are expressed as kilodaltons (kDa).
# FIG. 4C (top panel) is a schematic diagram of the amino acid sequence of (i) the MUC1-cytoplasmic domain (MUC1-CD) [amino acids 1-72; SEQ ID NO:2]; (ii) the MUC1-CD fragment [amino acids 1-45; SEQ ID NO:3]; and (iii) the MUC-CD fragment [amino acids 46-72; SEQ ID NO:4]. FIG. 4C (bottom panel) is a photograph of an immunoblot and a photograph of a Coomassie blue-stained electrophoretic gel. GST- and the indicated GST-MUC1-CD fusion proteins bound to glutathione beads were incubated with purified IKKβ. The precipitates were immunoblotted with anti-IKKβ. Input of the GST and GST-MUC1-CD fusion proteins was assessed by Coomassie blue staining. The molecular weights of proteins (as indicated on the left of the photographs) are expressed as kilodaltons (kDa).
# FIG. 11A is a pair of photographs of an immunoblot and Coomassie-blue stained gel. GST and the indicated GST-MUC1-CD fusion proteins (MUC1-CD and MUC1-CD(mSRM)) bound to glutathione beads were incubated with IKKβ. The precipitates were immunoblotted (IB) with an anti-IKKβ antibody. Commassie blue staining of the gel was performed to confirm that equal amounts of GST- and GST-MUC1-CD proteins were used in the experiment. The molecular weights of proteins (as indicated on the left of the photographs) are expressed as kilodaltons (kDa).
# (§3) In vitro binding assays. Purified GST-MUC1-CD (glutathione s-transferase fused to the MUC1-CD polypeptide) was cleaved with thrombin to remove the GST moiety. […] Adsorbates to glutathione-conjugated beads were analyzed by immunoblotting.
# IKKβ-IKKγ complexes = IKKβ-IKKγ complexes (Homo sapiens, UniProt O14920+Q9Y6K9); assay: In vitro association of IKKβ with GST-IKKγ in absence and presence of MUC1-CD proteins; format: binding; conditions: purified IKKβ and GST-IKKγ, with or without added MUC1 protein
# IKKβ-IKKγ complexes, sequence (Q9Y6K9 whole entry, one chain of several): as the sequence (Q9Y6K9 whole entry) above
# Description: FIG. 7C is a series of photographs of immunoblots. GST- or GST-IKKγ bound to glutathione beads was incubated with IKKβ in the absence and presence of MUC1-CD protein. The precipitates were immunoblotted (IB) with anti-IKKβ (upper panel). Input amounts of the various proteins were assessed by immunoblotting with the indicated antibodies (lower 3 panels). The molecular weights of proteins (as indicated on the left of the photographs) are expressed as kilodaltons (kDa).
# (§4) FIG. 12 is a series of photographs of immunoblots. GST, and GST-IKKγ fusion proteins bound to glutathione beads were incubated with MUC1-CD, MUC1-CD(mSRM), or IKKβ proteins as indicated. The GST-pull down precipitates were immunoblotted (IB) with antibodies specific for IKKγ (top panel), IKKβ (middle panel), or MUC1 (bottom panel) as indicated. The molecular weights of proteins (as indicated on the left of the photographs) are expressed as kilodaltons (kDa).
# as §3
# IKKβ [2] = biological target: IKKβ (Homo sapiens, UniProt O14920); assay: In vitro incubation of IKKβ and IKKγ with ATP, phospho-IKKβ-Ser-181 immunoblot; format: biochemical; conditions: MUC1 protein added to the reaction
# Description: as §4, with “13” for “12”, “for (from top to bottom) phosphor-IKKβ-Ser-181 (first panel),” for “for”, “(second” for “(top”, “(third” for “(middle”, “(fourth” for “(bottom”
# Target sequence in this assay (Q9Y6K9 whole entry partner, one chain of several): as the sequence (Q9Y6K9 whole entry) above
# MUC1-CD = biological target: T2, MUC1-CD; assay: In vitro GST pull-down of GST-IKKβ fragments with MUC1-CD; format: binding; conditions: GST-IKKβ (1-458) and GST-IKKβ (458-756) incubated with MUC1-CD
# Description: FIG. 4D is a pair of photographs of immunoblots. GST and the indicated GST-IKKβ fusion proteins bound to glutathione beads were incubated with MUC1-CD. The precipitates were immunoblotted with anti-MUC1-C antibody. The molecular weights of proteins (as indicated on the left of the photographs) are expressed as kilodaltons (kDa).
# as §2
Molecule,binding to IKKγ (IKKγ),binding to IKKβ (IKKβ [1]),interaction between IKKβ and IKKγ (IKKβ-IKKγ complexes),extent of IKKβ phosphorylation on Ser-181 (IKKβ [2]),binding of MUC1 to IKKβ fragments (MUC1-CD)
MUC1-CD(1-45): fragment consisting of amino acids 1-45 (SEQ ID NO:3) of the human MUC1 CD (CQCRRKNYGQLDIFPARDTYHPMSEYPTYHTHGRYVPPSSTDRSP; listed as Homo sapiens),not,confers the ability to bind to IKKβ; also recorded: binds to IKKβ,,,
MUC1-CD(46-72): fragment consisting of amino acids 46-72 (SEQ ID NO:4) of the human MUC1 CD (YEKVSAGNGGSSLSYTNPAVAATSANL; listed as Homo sapiens),binds to IKKγ,,,,
MUC1-CD(mSRM): MUC1-CD with serine-rich motif SAGNGGSSLS mutated to AAGNGGAAAA (SEQ ID NO:14) (Mutation of the Serine rich motif from human MUC1 CD),attenuated binding to IKKγ,no effect,substantially less effective,attenuated,
"IKKβ (1-458): fragment of amino acids 1-458 (SEQ ID NO:7) of human IKKβ (protein, listed as Homo sapiens, not fully specified; X: residue not identified in the source) MSWSPSLTTQTCGAWEMKERLGTGGFGNVIRWHNQETGEQIAIKQCRQELSPRNRERWCLEIQIMRRLTHPNVVAARDVPEGMXNLAPNDLPLLAMEYCQGGDLRKYLNQFENCCGLREGAILTLLSDIASALRYLHENRIIHRDLKPENIVLQQGEQRLIHKIIDLGYAKELDQGSLCTSFVGTLQYLAPELLEQQKYTVTVDYWSFGTLAFECITGFRPFLPNWQPVQWHSKVRQKSEVDIVVSEDLNGTVKFSSSLPYPNNLNSVLAERLEKWLQLMLMWHPRQRGTDPTYGPNGCFKALDDILNLKLVHILNMVTGTIHTYPVTEDESLQSLKARIQQDTGIPEEDQELLQEAGLALIPDKPATQCISDGKLNEGHTLDMDLVFLFDNSKITYETQISPRPQPESVSCILQEPKRNLAFFQLRKVWGQVWHSIQTLKEDCNRLQQGQRAAMMNL",,,,,MUC1 binds directly with the IKKβ N-terminal region
